# Assay results reported in patent US20230227838A1, “ENHANCED CELL SURVIVAL AGAINST BIOTIC AND ABIOTIC STRESSES THROUGH SALICYLICK ACID-INDUCED NPR1 CONDENSATES” (priority 2020, published 2023).
# Residue numbers refer to the chain shown, from its start.
# T1: Myc-CUL3 (Arabidopsis thaliana, UniProt Q9ZVH4 1-732)
# T1 construct: also called AtCUL3A (AT1G26830); not shown: N-terminal Myc tag (pEG203)
# T1 sequence (looked up): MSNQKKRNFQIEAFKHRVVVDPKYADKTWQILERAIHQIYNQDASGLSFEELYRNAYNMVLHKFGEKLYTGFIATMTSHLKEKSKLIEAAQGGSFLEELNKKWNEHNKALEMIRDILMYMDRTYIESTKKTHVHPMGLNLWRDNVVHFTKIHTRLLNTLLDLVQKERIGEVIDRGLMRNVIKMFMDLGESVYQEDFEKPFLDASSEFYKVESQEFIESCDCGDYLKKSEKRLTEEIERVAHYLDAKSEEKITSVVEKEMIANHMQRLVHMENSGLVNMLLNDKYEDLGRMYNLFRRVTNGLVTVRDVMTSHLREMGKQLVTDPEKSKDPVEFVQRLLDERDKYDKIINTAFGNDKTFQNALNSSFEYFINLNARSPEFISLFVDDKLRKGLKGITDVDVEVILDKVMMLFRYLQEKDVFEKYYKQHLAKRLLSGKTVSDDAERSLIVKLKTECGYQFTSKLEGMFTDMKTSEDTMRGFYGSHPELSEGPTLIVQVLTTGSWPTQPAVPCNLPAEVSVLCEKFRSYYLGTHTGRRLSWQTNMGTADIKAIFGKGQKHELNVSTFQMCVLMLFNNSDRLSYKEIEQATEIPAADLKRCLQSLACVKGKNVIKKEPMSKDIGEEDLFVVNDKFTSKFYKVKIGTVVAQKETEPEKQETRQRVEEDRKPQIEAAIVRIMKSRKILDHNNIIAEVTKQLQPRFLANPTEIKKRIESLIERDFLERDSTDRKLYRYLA
# B1: NPR1-HA (other)
# chain: MDTTIDGFADSYEISSTSFVATDNTDSSIVYLAAEQVLTGPDVSALQLLSNSFESVFDSPDDFYSDAKLVLSDGREVSFHRCVLSARSSFFKSALAAAKKEKDSNNTAAVKLELKEIAKDYEVGFDSVVTVLAYVYSSRVRPPPKGVSECADENCCHVACRPAVDFMLEVLYLAFIFKIPELITLYQRHLLDVVDKVVIEDTLVILKLANICGKACMKLLDRCKEIIVKSNVDMVSLEKSLPEELVKEIIDRRKELGLEVPKVKKHVSNVHKALDSDDIELVKLLLKEDHTNLDDACALHFAVAYCNVKTATDLLKLDLADVNHRNPRGYTVLHVAAMRKEPQLILSLLEKGASASEATLEGRTALMIAKQATMAVECNNIPEQCKHSLKGRLCVEILEQEDKREQIPRDVPPSFAVAADELKMTLLDLENRVALAQRLFPTEAQAAMEIAEMKGTCEFIVTSLEPDRLTGTKRTSPGVKIAPFRILEEHQSRLKALSKTVELGKRFFPRCSAVLDQIMNCEDLTQLACGEDDTAEKRLQKKQRYMEIQETLKKAFSEDNLELGNSSLTDSTSSTSKSTGGKRSNRKLSHRRR
# notes: Full-length wild-type NPR1, transiently expressed in N. benthamiana; also called HA-fused NPR1; WT NPR1; not shown: C-terminal HA tag (pLN462)
# B2: rdr3: NPR1 with cysteine cluster of RDR3 mutated (C511/521/529A) (protein)
# chain: B1 chain with C511A, C521A, C529A
# modifications: A. thaliana npr1 rdr3 protein
# B3: sim3-HA (other)
# chain: B1 chain with I345A, L346A, L348A
# notes: SUMOylation-deficient mutant of NPR1; also called npr1sim3; HA-fused sim3; not shown: C-terminal HA tag (pLN462)
# B4: rdr2-HA (other)
# chain: B1 chain with C378A, C385A, C394A
# notes: not shown: C-terminal HA tag (pLN462)
# Tests used:
# Myc-CUL3 [1] = target: T1, Myc-CUL3; experiment: co-IP, co-expression in N. benthamiana, 1 mM SA
# [2] = system: Psm ES4326/AvrRpt2-mediated cell death; experiment: Cell death (conductivity/electrolyte leakage, trypan blue) after Psm ES4326/AvrRpt2 inoculation; format: in vivo, Arabidopsis thaliana; conditions: transgenic plants expressing the mutant in npr1-2 background; 1 mM SA 24 hr before inoculation
# Protocol: Chemical treatment, pathogen infection and cell death assays. […] At 2 days, the bacterial colonies were scored.
# Trypan blue staining. Leaves of three-week-old Arabidopsis infected with Psm ES4326/AvrRpt2 were sampled at 1 dpi, boiled in 95% ethanol until completely bleached, followed by boiling for 3 min in a 1:1 mixture of 95% ethanol and staining solution (10 ml lactic acid, 10 ml glycerol, 10 g phenol and 10 mg trypan blue, dissolved in 10 ml DDW). The leaves were then de-stained in 2.5 g/ml chloral hydrate solution and transferred to 70% glycerol for subsequent imaging.
# [3] = system: cytoplasmic condensates (SINCs); experiment: Confocal imaging of localization and condensate (body) formation of GFP-fused NPR proteins and variants; format: cell-based, Nicotiana benthamiana
# Protocol: (§1) Plant transformation: For plant transformations, the Agrobacterium tumefaciens strain GV3101 was transformed with plant binary vectors carrying the indicated transgenes. For stable expression in Arabidopsis, a floral dipping method was used. For transient expression in N benthamiana, the Agrobacterium carrying the indicated construct was cultured overnight at 28° C. in Luria-Bertani (LB) broth medium supplemented with appropriate antibiotics: spectinomycin (100 μg/ml), kanamycin (50 μg/ml), gentamycin (50 μg/ml), and rifampicin (25 μg/ml). The obtained culture was re-inoculated at 1:10 into fresh growth media with antibiotics and grown for another 4 hr. Cells were then spun down at 1,600 g for 10 min, and inoculum was prepared by resuspending cells to OD600 nm=1 in double distilled water (DDW) containing 200 μM acetosyringone (Sigma). Unless otherwise stated, for co-IP, co-localization, and BiFC assays in N. benthamiana, the proteins were co-expressed at 1:1 mixture of the relevant Agrobacteria inoculums. In all BiFC assays, the pair of YN/YC fusions was co-expressed together with free mCherry to mark the cytoplasm and nucleus, mCherry-NLS to mark the nucleus only, or mCherry-fused test proteins for co-localization analysis. The inoculum was pressure infiltrated into N. benthamiana leaves at the abaxial side using 1 ml syringe without the needle. Due to low overall levels of NPR1-GFP in transgenic plants, a transient expression assay in Arabidopsis seedlings was used to monitor NPR1-GFP subcellular localization after SA treatment (FIG. 2B). To limit the imaging time in this transient assay (2 hours), a higher baseline SA concentration had to be used. Seeds of WT (Col-0) Arabidopsis were germinated on solid half-strength Murashige and Skoog (1/2 MS) medium and grown for 4 days. Agrobacterium carrying the indicated constructs was grown overnight in LB medium supplemented with appropriate antibiotics. The obtained culture was re-inoculated at 1:10 into virulence induction medium [50.78 mM MES, 0.5% Glucose, 1.734 mM NaH2PO4, 5% of 20X-AB mix (373.9 mM NH4C1, 24.34 mM MgSO4, 40.23 mM KCl, 1.36 mM CaCl2 and 0.18 mM FeSO4·7H2O), 200 μM acetosyringone] supplemented with 25 μg/ml rifampicin and grown for another 24 hr at 28° C. to OD600=0.8 (inoculum). Seedlings were vacuum-infiltrated with the inoculum, and at 48 hpi (hours post inoculation), treatments were performed by submerging the transformed seedlings in water or SA solution at indicated concentrations for 2 hr. Entire cotyledons were sampled for microscopy.
# Confocal laser scanning microscopy. Unless otherwise indicated, all imaging data and micrographs for single protein imaging, co-localizations, BiFC and time-lapse were obtained from the transient expression in N. benthamiana using the relevant Agrobacteria strains. All imaging was done with confocal laser scanning fluorescence microscopy using Zeiss 880 airyscan inverted confocal microscope with a 40×/1.2 water correction objective. GFP (eGFP) was excited with a 488 nm argon laser and emission was collected with a 505-530 nm band pass filter. YFP was excited with an argon laser using a 514 nm beam splitter, and emission was detected with a 520-555 nm band pass filter. mCherry was excited with a 561 nm diode laser, and emission was detected with a 575-615 nm band pass filter. When eGFP/YFP were imaged together with mCherry, a spectral GASP detector was used to collect emission from eGFP/YFP. Propidium iodide (PI) was excited with 488 nm argon laser and emission was detected with a 590-620 nm band pass filter. Time-lapse imaging was carried out on live leaf tissue samples from N. benthamiana plants transiently expressing the protein of interest. Image acquisition was done in 5 min intervals for the duration of 2 hr by scanning 30 consecutive focal planes along the Z-axis covering the entire thickness of an epidermal cell. Z-projection was done to each time frame stack before composing a final time-lapse file. […]
# PR1 promoter = PR1 promoter activity, dual luciferase assay; format: cell-based, Nicotiana benthamiana; conditions: 2 mM SA for 24 hr
# From the text: PR1 promoter activity and dual luciferase assay. For promoter transactivation assays, the PR1 promoter reporter (pPR1:DUAL-LUC) was transiently co-expressed in N. benthamiana together with free HA, or HA-fused WT NPR1 or npr1 mutants (effectors) followed by treatment with SA at 1 dpi. At 2 dpi (24 hr after SA treatment), leaf discs were collected, ground in liquid nitrogen, and lysed with the PLB buffer of the Dual-Luciferase Reporter Assay System (Promega, E1910). Lysate was spun down at 12,000 g for 1 min, and 10 μl was taken for measuring FLUC and RLUC activities according to manufacturer's instructions using a Victor3 plate reader (PerkinElmer). At 25° C., substrates for FLUC and RLUC were added using the automatic injector and after 3 s shaking and 3 s delay, the signals were captured for 3 s and recorded as counts per second. To obtain the PR1 promoter activity, the ratio of F-LUC and R-LUC activities was calculated for each effector and plotted relative to that of free HA.
# CUL3 = experiment: Co-IP of Myc-CUL3 with HA-fused NPR1 or variants; format: binding, Arabidopsis thaliana; conditions: 1 mM SA for 5 hr
# Protocol: as §1
# Protein analysis and IP. Recombinant protein analysis was performed using transient expression in N. benthamiana, or stable over-expression in transgenic Arabidopsis, or expression in E. coli. Total protein extraction from plants was performed by homogenizing leaf tissue in the plant extraction buffer [50 mM Tris-HCl (pH 7.5), 150 mM NaCl, 5 mM EDTA, 0.2% Triton X-100, 0.2% Nonidet P-40] supplemented with 1 mM PMSF, 100 μM MG132, and EDTA-free protease inhibitor cocktail (Roche). For ubiquitinated protein analysis in plants, 100 μM of DUB (deubiquitinase) inhibitor (LifeSensors) and 10 mM NEM were added. Next, the lysates were cleared by centrifugation at 14,000 rpm for 15 min followed by filtering through a 0.2 μm filter. […] Pull-downs or IP experiments were done on total protein extracts by incubating protein samples in the lysis buffer overnight with indicated affinity tag or antibody conjugated to agarose or magnetic beads: GFP-trap agarose beads (Chromotek) for GFP fusions; RFP-trap agarose beads (Chromotek) for mCherry fusions; anti-HA magnetic beads (ThermoFisher) for HA tag fusions; anti-DYKDDDDK coupled magnetic agarose (ThermoFisher) for FLAG tag fusions; and glutathione magnetic agarose (ThermoFisher) for GST fusions. Unless otherwise indicated, after pull-down/IP, beads were washed 3 times and proteins were eluted by boiling in the 2×SDS sample buffer. […]
# Myc-CUL3 [4] = target: T1, Myc-CUL3; experiment: pull-down, N. benthamiana, SA dose response
# Myc-CUL3 [5] = target: T1, Myc-CUL3; experiment: co-IP, N. benthamiana, 1 mM SA 5 hr
molecule,measurement,setting,value
B1,binding result,Myc-CUL3 [1],binds
B2,protection against cell death induced by Psm ES4326/AvrRpt2 (SA-mediated survival phenotype),[2],partially compromised the protection against cell death
same,SA-induced cytoplasmic body/condensate (SINC) formation,[3]; 5 mM SA for 2 hr,completely abolished the SA-induced condensation in both cytoplasm and nucleus
same,nuclear accumulation (nuclear-cytoplasmic partitioning),"[3]; absence of SA, compared to WT",increased nuclear accumulation
same,condensate formation in the absence of SA (constitutive),[3]; no SA treatment / mock,no effect on protein state in untreated cells
same,transcriptional co-activation function (PR1 promoter transactivation),PR1 promoter,reduced transcriptional co-activation function
same,CUL3 pull-down signal in co-IP,CUL3,little interaction
B3,binding result,Myc-CUL3 [4],binds
B4,binding result,Myc-CUL3 [5],binds
